16 molecules from patent publication US20230020729A1 (Memorial Sloan Kettering, published 2023) can be followed below.

This assay deals with T1, human Fc Receptor-Like 5 (FcRL5), full length, expressed on cells (human, UniProt Q96RD9 16-977).
T1 construct: also called CD307e; IRTA2
T1 sequence: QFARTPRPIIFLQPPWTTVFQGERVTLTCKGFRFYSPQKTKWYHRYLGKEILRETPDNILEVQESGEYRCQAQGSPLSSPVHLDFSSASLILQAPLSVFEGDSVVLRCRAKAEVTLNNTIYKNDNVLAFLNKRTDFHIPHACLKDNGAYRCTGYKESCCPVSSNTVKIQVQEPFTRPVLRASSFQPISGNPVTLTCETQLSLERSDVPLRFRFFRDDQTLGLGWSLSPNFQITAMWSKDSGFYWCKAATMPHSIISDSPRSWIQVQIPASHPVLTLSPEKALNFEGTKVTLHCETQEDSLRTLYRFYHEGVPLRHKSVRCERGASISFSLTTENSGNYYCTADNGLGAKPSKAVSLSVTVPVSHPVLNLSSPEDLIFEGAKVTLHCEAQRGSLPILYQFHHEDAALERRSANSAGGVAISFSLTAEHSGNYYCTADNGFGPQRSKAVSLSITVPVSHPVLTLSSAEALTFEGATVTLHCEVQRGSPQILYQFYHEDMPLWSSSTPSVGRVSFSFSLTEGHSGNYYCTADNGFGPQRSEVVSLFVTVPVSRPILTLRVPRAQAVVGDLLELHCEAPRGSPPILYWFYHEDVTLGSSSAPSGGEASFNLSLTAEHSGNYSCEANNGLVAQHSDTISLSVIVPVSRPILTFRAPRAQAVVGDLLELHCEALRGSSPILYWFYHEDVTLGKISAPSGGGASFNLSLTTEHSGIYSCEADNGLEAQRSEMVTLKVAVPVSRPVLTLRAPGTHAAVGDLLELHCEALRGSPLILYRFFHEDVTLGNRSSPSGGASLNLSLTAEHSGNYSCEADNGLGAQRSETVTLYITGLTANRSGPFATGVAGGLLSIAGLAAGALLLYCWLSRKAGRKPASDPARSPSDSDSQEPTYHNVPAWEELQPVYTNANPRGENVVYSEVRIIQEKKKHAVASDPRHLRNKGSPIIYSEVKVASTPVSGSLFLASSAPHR
The assay is described as follows: scFv phage: ELISA on His-tag FcRL5, flow cytometry on FcRL5-overexpressing 3T3 and Raji cells. On the technique in general: ELISA stands for enzyme-linked immunosorbent assay.

B1: ET200-101 scFv (scFv)
scFv: QAVLTQPPSASGAPGQRVTVSCSGSNSNIGSNYVNWYQQFPGTAPKLLMYSSSQRPSGVPDRFSGSKSGTSASLAISGLHSEDEADYYCATWDDSLNAWVFGGGTKLTVLGSRGGGGSGGGGSGGGGSLEMAEVQLVQSGAEVRKPGASVKVSCKTSGYTFTWYAIHWVRQAPGQRLEWMGWINAGSGNTKYSQKFQGRVTLTRDTSASTAYMELSSLRSDDTAVYYCARPNNYGSGGDVFDIWGQGTMVTVSS
notes: VL-linker-VH; screened as scFv phage clone
Take B1: the binding result is reported as “binds”.

B2: ET200-045 scFv (scFv)
scFv: QPVLTQPPSVSVAPGKTATITCGGNNIGSESVHWYHQKPGQAPVLVIYDDAGRPSGIPERFTGSNSGNTATLTISRVEAGDEADYYCQVWDRNSAQFVFGPGTKVTVLGSRGGGGSGGGGSGGGGSLEMAEVQLVQSGAEVKKPGASVKVSCKASGYTFTSYGISWVRQAPGQGLEWMGWISAYNGNTNYAQKLQGRVTMTTDTSTSTAYMELRSLRSDDTAVYYCARGVHLDWWGQGTLVTVSS
notes: as for B1
As to B2, the binding result is “binds”.

B3: ET200-099 scFv (scFv)
scFv: QSVLTQPPSASGTPGQRVTISCSGSSSNIGSNTVNWYQQLPGTAPKLLIYSNDQRPSGVPDRFSGSKSGTSASLAISGLQSEDEADYYCASWDDSLNGRYVFGTGTKVTVLGSRGGGGSGGGGSGGGGSLEMAQVQLVQSGAEVRKPGASVKVSCKTSGYTFSWYAIHWVRQAPGQRLEWMGWINAGNGNTKYSQKFQGRVSLTRDTSASTAYMELSSLRSDDTAVYYCARPDNYGSGGDVFDIWGQGTMVTVSS
notes: as for B1
For the molecule B3, the binding result was “binds”.

B4: ET200-105 scFv (scFv)
scFv: SYVLTQPPSVSVSPGQTASITCSGDRLTNKYVSWYQQKPGQSPVLVIYEDAKRPSGIPARFSGSNSGNTATLTISGTQAMDESEYYCQAWDSSVVVFGGGTKLTVLGSRGGGGSGGGGSGGGGSLEMAEVQLVESGGGLVQPGRSLRLSCAASGFTFDDYAMHWVRQAPGKGLEWVSGISWNSGSIGYADSVKGRFTISRDNAKNSLYLQMNSLRDEDTALYYCAKDRGGGVIVKDAFDIWGQGTMVTVSS
notes: as for B1
As to B4, the binding result is “binds”.

B5: ET200-107 scFv (scFv)
scFv: QSVVTQPPSVSAAPGEKVTISCSGSNFNVGNNDVSWYQQLPGAAPKLLIYDNNKRPSGIPDRFSGSKSGTSATLDITGLHSDDEADYYCGTWDSSLNTGGVFGTGTKVTVLGSRGGGGSGGGGSGGGGSLEMAEVQLVQSGAEVKKPGASVKVSCKASGYTFTSYTISWVRQAPGQGLEWMGWISTYNGLTNYAQNLQGRVTMTTDTFTTTAYMELRSLRSDDTAVYYCVREGSPDYGDFASFDYWGQGTLVTVSS
notes: as for B1
Take B5: the binding result is reported as “binds”.

B6: ET200-069 scFv (scFv)
scFv: QSVVTQPPSASGTPGQRVTISCSGSSSNIGSNYVYWYQQLPGTAPKLLIYSNNQRPSGVPDRFSGSKSGTSASLAISGLRSEDEADYYCAAWDDSLSGYVFGTGTKLTVLGSRGGGGSGGGGSGGGGSLEMAQVQLQQWGAGLLKPSETLSLTCAVYGGSFSGYYWSWIRQPPGKGLEWIGEINHSGSTNYNPSLKSRVTISVDTSKNQFSLKLSSVTAADTAVYYCARLYEGGYHGWGSWLSSDSWGQGTLVTVSS
notes: VL-linker-VH; screened as scFv phage clone; also called ET200-69
Take B6: the binding result was “binds”.

B7: ET200-103 scFv (scFv)
scFv: QAVLTQPHSVSESPGKTVTISCTRSSGSIASNYVQWYQQRPGSAPTTVIYEDNQRPSGVPDRFSGSIDSSSNSASLTISGLKTEDEADYYCQSYDSTITVFGGGTKLTVLGSRGGGGSGGGGSGGGGSLEMAQVQLVQSGAEVKKPGSSVKVSCKASGGTFSSYAISWVRQAPGQGLEWMGGIIPIFGTANYAQKFQGRVTITADESTSTAYMELSSLRSEDTAVYYCAGEGYYDSSGYSNGDAFDIWGQGTMVTVSS
notes: as for B1
With B7, the binding result is “binds”.

B8: ET200-081 scFv (scFv)
scFv: QSALTQPASVSGSPGQSITISCTGTSSDIGGYNYVSWYQQHPGKAPKLMIYDVSNRPSGVSNRFSGSKSGNTASLTISGLQAEDEADYYCISYTRTWNPYVFGSGTKVTVLGSRGGGGSGGGGSGGGGSLEMAEVQLVQSGGGVVQPGGSLRLSCAASGFTFDDYAMHWVRQAPGKGLEWVSLISGDGGSTYYADSVKGRFTISRDNSKNSLYLQMNSLRTEDTALYYCAKDRAAAGYYYYGMDVWGQGTTVTVSS
notes: as for B1
As to B8, the binding result is reported as “binds”.

B9: ET200-079 scFv (scFv)
scFv: SYELTQPPSASGTPGQRVTISCSGSSSNIGSNYVYWYQQLPGTAPKLFIYRNNQRPSGVPDRFSGSKSGTSASLAISGLRSEDEADYYCAAWDDSLSGYLFGTGTKVTVLGSRGGGGSGGGGSGGGGSLEMAEVQLVESGGGLVQPGRSLRLSCAASGFTFDDYAMHWVRQAPGKGLEWVSGISWNSGSIGYADSVKGRFTISRDNAKNSLYLQMNSLRAEDTALYYCANGDSNYYYGMDVWGQGTTVTVSS
notes: as for B1
Take B9: the binding result is given as “binds”.

B10: ET200-098 scFv (scFv)
scFv: QPVLTQPPSVSKGLRQTATLTCTGNSNNVGNLGVAWLQQHQGHPPKLLSYRNNNRPSGISERLSASRSGNTASLTITGLQPEDEADYYCSAWDSSLSAWVFGGGTKLTVLGSRGGGGSGGGGSGGGGSLEMAEVQLVESGGVVVQPGGSLRLSCAASGFTFDDYAMHWVRQAPGKGLEWVSLINWDGGSTYYADSVKGRFTISRDNSKNSLYLQMNSLRAEDTALYYCAKGMGLRAFDYWGQGTLVTVSS
notes: as for B1
On to B10, for which the binding result was “binds”.

B11: ET200-106 scFv (scFv)
scFv: SYELTQPPAASGTPGQRVTISCSGGVSNIGSGALNWYQQLPGTAPKLLIYSYNQRPSGVSDRFSGSRSATSASLAISGLQSEDEADYYCATWDDSVNGWVFGGGTKLTVLGSRGGGGSGGGGSGGGGSLEMAEVQLVESGAEVKKPGDSVKVSCKPSGYNFLNYGINWVRQAPGQGLEWMGWISTYTGNTNYAQKLQGRVTFTTDTSTSTAYMEMRSLRSDDTAVYYCARQQGGGWYDVWGQGTLVTVSS
notes: as for B1
Consider B11, for which the binding result is recorded as “binds”.

B12: ET200-007 scFv (scFv)
scFv: SYVLTQPLSVSVAPGKTARITCGGNNIGSKTVHWYQQKPGQAPVLVIYYDSDRPSGIPERFSGSNSGNTATLTISRVEAGDEADYYCQVWDSSSDHRVFGGGTKLTVLGSRGGGGSGGGGSGGGGSLEMAQVQLQESGPGLVKPSETLSLTCNVSGYSISSGYFWGWIRQPPGKGLEWIGSIYHSRSTYYNPSLKSRVTISVDTSKNQFSLKLNSVTAADTAVYYCARGYGYFDYWGQGTLVTVSS
notes: as for B1
For the molecule B12, the binding result is reported as “binds”.

B13: ET200-097 scFv (scFv)
scFv: LPVLTQPPSVSVSPGQTAIITCSGDKLGEKYVSWYQQKPGQSPVLVIDQDTRRPSGIPERFSGSNSGTTATLTISGTQAMDEADYYCQAWDRGVVFGGGTKLTVLGSRGGGGSGGGGSGGGGSLEMAEVQLVESGGDLVQPGRSLRLSCAASGFTFNDYAMHWVRQAPGKGLEWVSGISWSGNNIGYADSVKGRFTISRDNAKNSLYLQMNSLRAEDTALYYCAKDSIRYGITWGGFDYWGQGTLVTVSS
notes: as for B1
In the case of B13, the binding result was “binds”.

B14: ET200-102 scFv (scFv)
scFv: QSVVTQPPSVSAAPGQKVTISCSGSSSNIGNNYVSWYQQLPGTAPKLLIYDNNKRPSGIPDRFSGSKSGTSATLGITGLQTGDEADYYCGTWDSSLSAYVFGTGTKVTVLGSRGGGGSGGGGSGGGGSLEMAQVQLVQSGAEVKKPGASVKVSCKASGYTFTNYALHWVRQAPGQGLEWMAWINGGNGNTKYSQNFQGRVTITRDTSASTAYMELSSLRSEDTAVYYCAKPEETAGTIHFDYWGQGTPVTVSS
notes: as for B1
Regarding B14, the binding result is recorded as “binds”.

B15: ET200-100 scFv (scFv)
scFv: NFMLTQPHSVSESPGKTVTISCTRSSGSIASNFVQWYQQRPGSAPTPMIYEDNNRPPGVPDRFSASVDSSSNSASLTISGLKTEDEADYYCQSYDTSNVVFGGGTKLTVLGSRGGGGSGGGGSGGGGSLEMAEVQLVESGGGLVQPGGSLRLSCAASGFTFSSYEMNWVRQAPGKGLEWVSYISSSGSTIYYADSVKGRFTISRDNAKNSLYLQMNSLRAEDTAVYYCARWDYGMDVWGQGTTVTVSS
notes: as for B1
Regarding B15, the binding result was “binds”.

B16: ET200-104 scFv (scFv)
scFv: NFMLTQPHSVSESPGKTVTISCTRSSGSIASNYVQWYQQRPGSAPTTVIYEDNQRPSGVPDRFSGSIDSSSNSASLTISGLKTEDEADYYCQSYDSSNVVFGGGTKVTVLGSRGGGGSGGGGSGGGGSLEMAEVQLVESGGGLVQPGGSLRLSCAASGFTFSSYEMNWVRQAPGKGLEWVSYISSSGSTIYYADSVKGRFTISRDNAKNSLYLQMNSLRAEDTAVYYCARWDYGMDVWGQGTTVTVSS
notes: as for B1
For the molecule B16, the binding result is on record as “binds”.
